Laboratory results from US7115576B2, “Water-soluble antibiotic comprising an amino sugar, in the form of a polysaccharide conjugate” (Fresenius Kabi Deutschland GmbH, priority 2001, dated 2006).

Legend:
[1] = system: erythrocytes; assay: Haemolysis comparison test (extinction of supernatant at 576 nm); type: cell-based, human; settings: 37°C, 20 min
Protocol: Of this stock solution, three dilutions were produced in accordance with Table 2 and their haemolytic action also investigated.
Production of the erythrocyte suspension: freshly taken human blood was diluted with approximately 5 times the volume of sterile 0.9% NaCl solution (batch designation: 9055A64 produced by the company Braun Melsungen) and centrifuged for 5 minutes at a relative centrifugal acceleration of 2000. The supernatant solution was then drawn off and the sedimented erythrocytes treated twice more in the same way.
The erythrocytes thus washed were counted in a Neubauer counting chamber and—where necessary—diluted again with sterile 0.9% NaCl solution to a final concentration of approx. 5·10^8 erythrocytes per ml. This suspension is according to DIN standard usable at room temperature for up to 6 hours.
Haemolysis comparison test: 5 ml of the solution to be tested was mixed with 1 ml of the above erythrocyte suspension, transferred to a cleaned centrifuge tube and incubated in a water bath at 37±1° C. for 20 minutes. Centrifuging was then performed for 5 minutes at a relative centrifugal acceleration of 2000.
The extinction of the supernatant liquid was measured. 5 ml of the 0.9% NaCl solution and the 5% glucose solution, which were mixed with 1 ml of the erythrocyte suspension, also incubated at 37±1° C. for 20 minutes and then centrifuged as above, served as negative controls.
For the test for haemolysis, the extinctions of the respective supernatants were measured in a photometer against the negative controls at a wavelength of 576 nm using a cuvette 10 mm in thickness. Owing to the differing stainings of the solutions, the extinction was also measured for the purpose of comparing the solutions without erythrocyte suspension.

[2] = Water solubility; type: physicochemical

| Compound | Extinction 576 nm ([1]; amphotericin B 0.1 mg/ml in the test batch (0.12 mg/ml in the solution)) | Extinction 576 nm ([1]; amphotericin B 0.2 mg/ml in the test batch (0.24 mg/ml in the solution)) | Extinction 576 nm ([1]; amphotericin B 0.4 mg/ml in the test batch (0.48 mg/ml in the solution)) | Extinction 576 nm ([1]; amphotericin B 0.83 mg/ml in the test batch (1.00 mg/ml stock solution)) | water solubility [2] |
| --- | --- | --- | --- | --- | --- |
| Amphotericin B-HES Conjugate [Ampho HES] | 0.027 | 0.061 | 0.274*) | 2.452*)**) | > 0.1 g/5 ml H2O |
| C[C@@H]1[C@H](O)[C@@H](C)/C=C/C=C/C=C/C=C/C=C/C=C/C=C/[C@H](O[C@@H]2O[C@H](C)[C@@H](O)[C@H](N)[C@@H]2O)C[C@@H]2O[C@](O)(C[C@@H](O)C[C@@H](O)[C@H](O)CC[C@@H](O)C[C@@H](O)CC(=O)O[C@H]1C)C[C@H](O)[C@H]2C(=O)O [Amphotericin B, reference compound] | – | – | – | – | virtually insoluble in water |
